# Measurements reported in the DeepSol protein solubility set.
# Assay: soluble on expression in E. coli; label from the status in PepcDB or PDB records
row,Sequence,soluble on expression in E. coli
1,MLCAQTFSEEDFRIRGYVDIHRLDTTIRLALIYSTTDNFVGEDMYGDFDKAYFEKGFAERIHQAQRLLRKEHPDYSLLIYDASRPISIQRRMYTLVKGTSKAVYVANGNRGGKHNYGVAVDLTIVDRDGKPLDMGTPVDHFGRAAHVGQEERLAADGLISREAVRNRRLLRRIMKSVGLVPYRREWWHYELPESMSHTRSHYRLLDF,not soluble
2,MLCRNTARTGCKFFRLYHSNPIEHVKPIHIKPLTYGKESPQYKVLSLALQKFVPEHGFSERSIVESLNELGYPSSMISSIGAPNSPSFFHSSTAVMELIKFQLVDKRYRLTEGINPDVTPQYKLPSLEHLLLKRLEMDKPIGGHLSELMSQLAIPSAFLFETAIPELHRLSDDMIYFSNEKDHHDSAWYAKRLAVSSTYIGSKLFMAQDKSHNYKETFTFAKDKLHRVMRLGEYYNNTEEFAWYTLMSTVNLIKSQLVRG,not soluble
3,MLDPRLSVAPMVDRTDRHFRFLVRQVSLGVRLYTEMTVDQAVLRGNRERLLAFRPEEHPIALQLAGSDPKSLAEAARIGEAFGYDEINLNLGCPSEKAQEGGYGACLLLDLARVREILKAMGEAVRVPVTVKMRLGLEGKETYRGLAQSVEAMAEAGVKVFVVHARSALLALSTKANREIPPLRHDWVHRLKGDFPQLTFVTNGGIRSLEEALFHLKRVDGVMLGRAVYEDPFVLEEADRRVFGLPRRPSRLEVARRMRAYLEEEVLKGTPPWAVLRHMLNLFRGRPKGRLWRRLLSEGRSLQALDRALRLMEEEVGEEGEKEKPGPRGQREAAPGPAREGV,soluble
4,MLEDPGGRPRVYVDVREERSPVPSILESLGVQVIPKQLPMGDYLVSDSIIVERKTSSDFAKSLFDGRLFEQASRLAEHYETVFIIVEGPPVPRRYRGRERSLYAAMAALQLDYGIRLMNTMDPKGTALVIESLARLSTREGGQRIVIHKKPRLSDVREWQLYILQSFPGIGRRTAERILERFGSLERFFTASKAEISKVEGIGEKRAEEIKKILMTPYK,soluble
5,MLEQPIGVIDSGVGGLTVAKEIMRQLPKENIIYVGDTKRCPYGPRPEEEVLQYTWELTNYLLENHHIKMLVIACNTATAIALDDIQRSVGIPVVGVIQPGARAAIKVTDNQHIGVIGTENTIKSNAYEEALLALNPDLKVENLACPLLVPFVESGKFLDQTADEIVKTSLYPLKDTSIDSLILGCTHYPILKEAIQRYMGEHVNIISSGDETAREVSTILSYKGLLNQSPIAPDHQFLTTGARDQFAKIADDWFGHEVGHVECISLQEPIKR,soluble
6,MLFIAFAPFGAFALEANSKNDGYSLDDIKYYKIFENEDIPKIMYALRQGDFEIIAELKNEWEIEEEDVSFEYTTSKNPLGELIRDNLYELGQKYEVFEDESDFVSKMNVWATAFTKSMMKKSSEQKDKLIVQTVNALDNLDETLNLFSERLREWYSLYFPEMDNIVKKHDIYVSLVSEYGDREEYTRTKLKKTMPSNVARTISLAAKESMGADVSEFDLKIMKNLADEIKSMYEYRESLQEYLETSMNEIAPNLTKVAGASLGARLISLAGGIERLLRLPASTIQVIGAEKALFAHLRERALPPKHGVIFQHPLIQGSPWWIHGKIARAISCKISIAIRADAFGNDISDMLIEDMNKKVAEIKEKFPEPTRKRRPRPDTRSFGNKGGQDRDRRSQGDRKPSGNRGDSKKGGKPFGKKPAGKDDRRDNRKGDRKPFGGKPKNSGNQPPKERSGEKRRDSTKKVKAERKVIGKTSSQNLEHHHHHH,soluble
7,MLFIIKYYEPKNLYEHILFILKHLCRSKSMILNPQKLSVDFGNGITATEPIIPRRYTLTHSDITAKLFLNIGLTYAYNKMTTMRDEVLGEWVKKSQDYSYQVFLHVDGRLGPKTTAIRNKIFRRELPLALEAIRYGDKRFFNAHPYLDNAPITVFFISTNPNFNKIENWGTFSDYNIESYYRNYKNVYLLDRKVGDVTGDDIPDTVSLYGEKEAPSEIFADDITVIITDGSTGNTTTITPEFNSGYNPTIFLGDFTKNRVYDIKISIDSGGSGGYGFFYIYSFMENTFREIFNFDAYNKEYKYKVDYDDLYKVNVGAITLNKLFILDISYKGYDVLSQYYYENGKLIKPVDGDVLALGALVPIVSNELLDFYNLLAFQRIIGTYNADTLGYVQNLLSWDGKNFTPSSTFVNISGSSLISPYLEHHHHHH,not soluble
8,MLGGSLYQVYAIKEAVKMGYYVITCDYLPNNPGHQYAHEYYNVSTTDKEAVYELAKRLQVDGVVAYASDPAAPTAAYVCEKLGLPTSPYTSVEILSQKDLFRRYLAEHNFNVPKYVGCSSYTEALEQIKNLTLPVMIKPVDSSGSKGINKLTNVDQLKDFIEDALSYSREKRIIIEEFIEKDGYQISGDAFSVDGILKFHCFGNEYYSSSVVKDFAPLGECWPFQMKPEIITELEKDIQRLISELKMGTTAYNVEAILGKNGKLYILELGARSGGSLIPQITELATGVNMVKYVIKAALGEDCSEIEMSPARGYWSNYMLHSKQTGRFKEISFDENFAKNNLVDCVTELKSGDNVHAFRDAGDALGTLILKYSSKEEMFNVIENMDQFVHIIID,not soluble
9,MLIELLISITVLASILVSCKKEKNEAAKLKPRGFDRKSSGAPAPAGANLVNKSGGSGGGSGGSGDANRLLKREIKEVKMEERSADDNETINDVKSNWGTV,not soluble
10,MLIKIAPSILSADFSKLGEEVLRIEKAGADLVHIDVMDGHFVPNITIGPPVVKSLKKVSKLPFDVHLMIENPDMYIESFADAGADIISVHAEACRHLHRTIQKIKQLGIKAAVALNPATPLCAVEWVMEDVDMILLMTVNPGFGGQKYINGVTRKIEELERIVESRGLNIDIEVDGGIDTETVQYVTKAGANVIVSGSTIFAAEDTAKIIQELRMNSYRK,not soluble
11,MLIKVKTLTGKEIEIDIEPTDTIDRIKERVEEKEGIPPVQQRLIYAGKQLADDKTAKDYNIEGGSVLHLVLALRGG,soluble
12,MLILSFLCPAFLNAQIVTDERMFSFEEPQLPACITGVQSQLGISGAHYKDGKHSLEWTFEPNGRLELRKDLKFEKKDPTGKDLYLSAFIVWIYNEQPQDAAIEFEFLKDGRKCASFPFGINFKGWRAAWVCYERDMQGTPEEGMNELRIVAPDAKGRLFIDHLITATKVDARQQTADLQVPFVNAGTTNHWLVLYKHSLLKPDIELTPVSDKQRQEMKLLEKRFRDMIYTKGKVTEKEAETIRKKYDLYQITYKDGQVSGVPVFMVRASEAYERMIPDWDKDMLTKMGIEMRAYFDLMKRIAVAYNNSEAGSPIRKEMRRKFLAMYDHITDQGVAYGSCWGNIHHYGYSVRGLYPAYFLMKDVLREEGKLLEAERTLRWYAITNEVYPKPEGNGIDMDSFNTQTTGRIASILMMEDTPEKLQYLKSFSRWIDYGCRPAPGLAGSFKVDGGAFHHRNNYPAYAVGGLDGATNMIYLFSRTSLAVSELAHRTVKDVLLAMRFYCNKLNFPLSMSGRHPDGKGKLVPMHYAIMAIAGTPDGKGDFDKEMASAYLRLVSSDSSSAEQAPEYMPKVSNAQERKIAKRLVENGFRAEPDPQGNLSLGYGCVSVQRRENWSAVARGHSRYLWAAEHYLGHNLYGRYLAHGSLQILTAPPGQTVTPTTSGWQQEGFDWNRIPGVTSIHLPLDLLKANVLNVDTFSGMEEMLYSDEAFAGGLSQGKMNGNFGMKLHEHDKYNGTHRARKSFHFIDGMIVCLGSDIENTNMDYPTETTIFQLAVTDKAAHDYWKNNAGEGKVWMDHLGTGYYVPVAARFEKNFPQYSRMQDTGKETKGDWVSLIIDHGKAPKAGSYEYAILPGTDRKTMTAFAKKPAYSVLQQDRNAHILESPSDRITSYVLFETPQSLLPGGLLQRTDTSCLVMVRKESADKVLLTVAQPDLALYRGPSDEAFDKDGKRMERSIYSRPWIDNESGEIPVTVTLKGRWKVVETPYCKVVSEDKKQTVLRFLCKDGASYEVELEKLEHHHHHH,soluble
13,MLKGKTIYVRPLEVTDAEENLGLQSENRDFFEQFSMIRADDYYTVEGQRKRITEYQERLEKDEEYHFGIFTASDDRLIGTVSLFQIIRGALQTAFIGYFLDKAHNGKGIMTEAVRLVVDYAFHELKLHRIEAGVMPRNLGSMRVLEKAGFHKEGIARKNVKINGVWEDHQVLAILNPDDEQLEHHHHHH,not soluble
14,MLKIGIIPNEDKDEELKYTRILVDSIKKCGGTAIVCDDIALKLGDKESNINEDNIVDMSDVMVCLGGDGTFLKAARMTVVKGKPLLGVNLGKLGFLADVDKNDIENAVKRLVEDKFTVDERMMLDTVIVRDGKIIAEDIVLNDVVISRGAISRILHLKTYINDAFMDLYPGDGLIISTPTGSTAYSLSAGGPLVEPDVDLIICTPICPHLLYSRSFITTADRVIKVVVAESSSHEAMVTVDGQNGYEVRGGDVIITKKSRIRMPMVRLNGKNFFDVLRGKIYDRGESMK,not soluble
15,MLKIGPYEFSSRLLLGTGKYPSLDVQKEAVEASGAEILTFAVRRMNIFSPEQPNFLEQLDLSKYKLLPNTAGAKTAEEAVRIARLAKASGLCDMIKVEVIGCDKTLLPDPIETLKAAEMLLEEGFIVLPYTSDDVVLAKRLEELGCHAIMPGASPIGSGQGIINPLNLSFIIEQANVPVIVDAGIGGPADAALAMELGADGVLLNTAVSGAADPVKMAKAMKLAVEAGRLGYEAGRIPKKRYASASSPTEGMSVV,not soluble
16,MLKKYTRYSNFRLISQIQFQRHIDIFHAITYDNIDGLVAAFVRNEPFDIKDKNGNTPLHLAAKLNRRLLCRAVCVYAAGLDLWNSKNNDGKTPIEMTDDANIKRDLQSISTSRSSVDSHHMAYNKLLIEKKINENEEQNQNQKVILSLDGGGLRVVLQCAILLAVERELGEPLRNRIHWIAGTSCGGIMASSIGVGIDLADALRLYIIIRKRIFGGNNQKFPKHSALGIETCLQEVMGSKTLMSKCTAHRLVVTTAKVTLAPPQLVLFRSYAPRIDSKEFEQLGYFNPNKILLWKAIRCTTAAPTYFPSFNGMADGALFCNNPCIMVMTEFAKLKKIENYRGKNNTDEIGCVISVGTGIEPSYPINGIDINLTSGLTGITGNWREIIENTKNLITVFLYQCTSSHNVHVGQSREWCHSMQVPFFRFSPHLAAPFELDNCKIEDITNAMFDNEVYIRTEIKQHISDLCRLLKSMPRNTEPCNYSKITGGKGSKVGSPKSDKK,not soluble
17,MLKQLLEQATSNNGKARLYAFENTVELTNLIPPTVSYESGGNTLIVGPTAIIESAAAQLSQMNSLTLLSTDGEKGTNPELYYANSVQVSGFLGTFEVLIENHGSTNNLAKVAINSDCFDIVLDLCLNSCMSEEVPVPGYYPVGRGYPKLAEALEEIPTLMGTFDKPKFFRLDTDLCAHSSRGVKGCERCVDACPAGALSSEGSDKTGHRIEINPYLCQGVGTCATACPTEAIHYALPNPEDTQKFIERTLANYEQAGGLDPIVLICSSRHESYNVMALKALPDNVIPIVVEELPSVGIDTWFAALVNGATQVLFAASRFMPQTIIRVLNSEVGIAQELLDQLGIAKETIDILYLESLREGAPTLCTESFDLALGDLQGNKRQRLFTALDALSASRIPVENIVELPANAPYGTVSCESKDC,not soluble
18,MLKRRRFHVHFGWILFHCQDCMRHEEGSEESESSFTEMVAEELKLREAQAQEDEWRADRLLLDAKKAASQYQKEADKCSMGMETCELAREKAEAALDEQRRLSYMWELRARQGGWKEGTVASDVI,soluble
19,MLLAMELLLEYDYYWKLDNIIANVQRNFPSNSLTVLFPKTHLLISPENMGRVAAKLIRLTEKNQQRNGIVTFKLYYQHEEGEEEEEEEVDEDEDEEGEEGEEEEEEEDEVEEVPQKISEIFNLGAHLVGEPPENCWYLEDILTIPKEIIKDAFGDVTVWYGKSFQLRNSIANRRIHFNLFYTKNYLKKFFMERDGCMMETEFLRHFKDIAN,not soluble
20,MLLCAGRNETLKKAVPIGVGLIESAINLTRMCLKNPDTESLIFIGSAGSYSPEMELLSVFESVCGYQIEESFSHLNSYTPLDNFIHIETEEQALFERVRVNSSNYIHTSEMFAKKMVQKGVLLENMEFFSVLSVAKAFSLKAKGIFCVSNYVGLNAYQEFKENHAKVKQILENIIDSLII,soluble
